Data taken from article PMC3695765.

Target: FLAG-ZO-2 (UniProt Q9UDY2)
Test: GST pull-down from cell lysate
Details: reference: GST-OccC not prephosphorylated; sites T400,T404,S408

binding against the reference: weaker
Substance: occludin C-terminal cytoplasmic tail, 263-523 (from UniProt Q16625) GST-OccC prephosphorylated by CK2
